Reference: paper PMC7946963, “Phosphorylation regulates the binding of autophagy receptors to FIP200 Claw domain for selective autophagy initiation” (Nature Communications, 2021)

Legend:
Assay in all cases: fluorescence polarisation titration
Settings in all cases: reference: unphosphorylated CCPG1 FIR2 peptide; sites S104
GABARAPL2 = GABARAPL2 (UniProt P60520)
[1] = molecular target: FIP200 (RB1CC1) Claw domain, 1490-1594 (UniProt Q8TDY2)
LC3C = LC3C (UniProt Q9BXW4)
GABARAPL1 = GABARAPL1 (UniProt Q9H0R8)
LC3A = LC3A (UniProt Q9H492)
LC3B = LC3B (UniProt Q9GZQ8)

Measured: binding against the reference

CCPG1 FIR2, 99-113 (from UniProt Q9ULG6) pS104 CCPG1 FIR2 peptide
stronger: all assays above
